Laboratory results as given in US20250237662A1.
pKd: −log10 of the molar value. Each block holds one substance with its values, some of them ahead of it.

How the values were obtained:
[1] = molecular target: humanized development candidate monoclonal antibody IgG4 (hIgG4); experiment: Gyrolab, mAb as capture, hIgG4 8 ng/ml
[2] = molecular target: humanized development candidate monoclonal antibody IgG4 (hIgG4); experiment: Gyrolab, mAb as capture, hIgG4 40 ng/ml
[3] = molecular target: humanized development candidate monoclonal antibody IgG4 (hIgG4); experiment: Gyrolab, mAb as capture, hIgG4 1.6 ng/ml
[4] = molecular target: humanized development candidate monoclonal antibody IgG4 (hIgG4); experiment: Gyrolab, mAb as capture, hIgG4 200 ng/ml
[5] = molecular target: humanized development candidate monoclonal antibody IgG4 (hIgG4); experiment: Gyrolab, mAb as capture, hIgG4 0.32 ng/ml
[6] = molecular target: humanized development candidate monoclonal antibody IgG4 (hIgG4); experiment: Gyrolab, mAb as capture, hIgG4 1000 ng/ml
[7] = molecular target: humanized development candidate monoclonal antibody IgG4 (hIgG4); experiment: Gyrolab, mAb as capture, hIgG4 5000 ng/ml
[8] = molecular target: humanized development candidate monoclonal antibody IgG4 (hIgG4); experiment: SPR (Biacore T200), under the same conditions as the rabbit clones, antigen 80-0 nM, 1:1 fit
[9] = molecular target: humanized therapeutic monoclonal antibody IgG1 (hIgG1); experiment: as above
[10] = molecular target: humanized development candidate monoclonal antibody IgG4 (hIgG4); experiment: Gyrolab, capture reagent, hIgG4 8 ng/ml
[11] = molecular target: humanized development candidate monoclonal antibody IgG4 (hIgG4); experiment: Gyrolab, capture reagent, hIgG4 40 ng/ml
[12] = molecular target: humanized development candidate monoclonal antibody IgG4 (hIgG4); experiment: Gyrolab, capture reagent, hIgG4 1.6 ng/ml
[13] = molecular target: humanized development candidate monoclonal antibody IgG4 (hIgG4); experiment: Gyrolab, capture reagent, hIgG4 200 ng/ml
[14] = molecular target: humanized development candidate monoclonal antibody IgG4 (hIgG4); experiment: Gyrolab, capture reagent, hIgG4 0.32 ng/ml
[15] = molecular target: humanized development candidate monoclonal antibody IgG4 (hIgG4); experiment: Gyrolab, capture reagent, hIgG4 1000 ng/ml
[16] = molecular target: humanized development candidate monoclonal antibody IgG4 (hIgG4); experiment: Gyrolab, capture reagent, hIgG4 5000 ng/ml
[17] = molecular target: humanized development candidate monoclonal antibody IgG4 (hIgG4); experiment: Gyrolab, capture reagent, hIgG4 8 ng/ml, against the blank
[18] = molecular target: humanized development candidate monoclonal antibody IgG4 (hIgG4); experiment: Gyrolab, capture reagent, hIgG4 40 ng/ml, against the blank
[19] = molecular target: humanized development candidate monoclonal antibody IgG4 (hIgG4); experiment: Gyrolab, capture reagent, hIgG4 1.6 ng/ml, against the blank
[20] = molecular target: humanized development candidate monoclonal antibody IgG4 (hIgG4); experiment: Gyrolab, capture reagent, hIgG4 200 ng/ml, against the blank
[21] = molecular target: humanized development candidate monoclonal antibody IgG4 (hIgG4); experiment: Gyrolab, capture reagent, hIgG4 0.32 ng/ml, against the blank
[22] = molecular target: humanized development candidate monoclonal antibody IgG4 (hIgG4); experiment: Gyrolab, capture reagent, hIgG4 1000 ng/ml, against the blank
[23] = molecular target: humanized development candidate monoclonal antibody IgG4 (hIgG4); experiment: Gyrolab, capture reagent, hIgG4 5000 ng/ml, against the blank
[24] = molecular target: drug: a monoclonal antibody of human IgG4 isotype (PandA assay); experiment: PandA assay, mAb 1 ug/ml in monkey plasma
[25] = molecular target: drug: a monoclonal antibody of human IgG4 isotype (PandA assay); experiment: PandA assay, mAb 0.5 ug/ml in monkey plasma
[26] = molecular target: drug: a monoclonal antibody of human IgG4 isotype (PandA assay); experiment: PandA assay, mAb 0.75 ug/ml in monkey plasma
[27] = molecular target: drug: a monoclonal antibody of human IgG4 isotype (PandA assay); experiment: PandA assay, signal to noise against the negative control
[28] = molecular target: drug: a monoclonal antibody of human IgG4 isotype (PandA assay); experiment: PandA assay (PEG precipitation, acid dissociation, MSD plate, sulfo-TAG-drug), mAb 5 ug/ml in monkey plasma

Av. Resp. [1]: 18.4
Av. Resp. [2]: 33.8
Av. Resp. [3]: 14.2
Av. Resp. [4]: 86.7
Av. Resp. [5]: 13.6
Av. Resp. [6]: 214
Av. Resp. [7]: 283
pKd [8]: 8.80
pKd [9]: 8.74
Substance: mouse anti-human IgG monoclonal antibody MCA5748G (Bio-Rad)

Av. Resp. [10]: 9.3
Av. Resp. [11]: 26.1
Av. Resp. [12]: 5.3
Av. Resp. [13]: 94.1
Av. Resp. [14]: 4.6
Av. Resp. [15]: 267
Av. Resp. [16]: 468
S/B [17]: 2.1
S/B [18]: 5.7
S/B [19]: 1.2
S/B [20]: 20.8
S/B [21]: 1
S/B [22]: 59
S/B [23]: 103
Substance: Gyrolab generic PK assay capture reagent

ECL Signal [24]: 182
ECL Signal [25]: 130
ECL Signal [26]: 148
S/N [27]: 1.37
ECL Signal [28]: 756
Substance: mouse anti-Fc monoclonal antibody clone JDC-10 (Southern Biotech, Cat. No. 9040-01)
